Like-named read-outs stand apart in the source and are kept apart here.
How the values were obtained:
[1] = biological target: T1, bivalent Nb30 (Nb30 fused to human IgG1 Fc) (nanomouse (mouse with camelid VHH genes)); experiment: BLI; details: both partners purified
T1 construct: also called Nb30 (bivalent)

[2] = biological target: T2, Nb12 trimer (three Nb12 units with GGGGS(x3) linkers, fused to human IgG1 Fc) (nanomouse (mouse with camelid VHH genes)); experiment: BLI; details: both partners purified
T2 construct: also called trivalent Nb12

[3] = biological target: T3, human immunodeficiency virus-1 (HIV-1) envelope trimer (BG505 DS-SOSIP) (HIV-1 group M subtype A, isolate BG505, UniProt Q2N0S6, stabilised)
[4] = biological target: T3, human immunodeficiency virus-1 (HIV-1) …; experiment: BLI; BG505 DS-SOSIP binding to immobilized VHH9 nanobody; kinetic fit; details: both partners purified

T1 sequence (heavy, as listed by the source): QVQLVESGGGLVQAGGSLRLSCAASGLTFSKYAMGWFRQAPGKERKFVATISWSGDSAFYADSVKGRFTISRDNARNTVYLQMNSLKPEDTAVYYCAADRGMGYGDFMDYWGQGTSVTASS

B1: SARS-CoV RBD fused to the Fc region of human IgG1 (Fc fusion)
chain: not shown
binding result [1]: binds
binding result [2]: binds

B2: VHH9-2 (VHH)
VHH: QVKLEESGGGSVQAGGSLRLSCTAPGFTSNSCGMAWYRQAPGKEREFVSSISTDGTTSYADSVKGRFTISKDKAKDTVYLQMNSLKPEDTAMYSCKTYGPYCYFDVWGAGTTVTVSS
binding result [3]: binds

B3: VHH9-3 (VHH)
VHH: QVKLEESGGGSVQAGGSLRLSCTAPGFTSNSCGMAWYRQAPGKEREFVSSISTDGTTSYADSVKGRFTISKDKAKDTVYLQMNSLKPEDTAMYSCKTYGPYCYFDVWGAGTTVTVSA
binding result [3]: binds

B4: VHH9-1 (nanobody from nanomouse immunized with BG505 DS-SOSIP) (VHH)
VHH: EVHLVESGGGSVQAGGSLRLSCTTPGFTSNSCGMAWYRQAPGKEREFVSSISTDGTTSYADSVKGRFTISKDKAKDTVYLQMNSLKPEDTAMYSCKTYGPYCYFDVWGAGTTLTVSS
binding result [4]: binds
